Test results: article PMC5792442, “A comparative Study of Aptasensor Vs Immunosensor for Label-Free PSA Cancer Detection on GQDs-AuNRs Modified Screen-Printed Electrodes”

Experiments:
[1] = target: T1, Prostate specific antigen (PSA) (UniProt P07288 25-261); test: electrochemical impedance spectroscopy, CV and DPV (immobilized aptamer); 5 mM [Fe(CN)6]3-/4-; also EIS without redox probe; LOD 0.14 ng/mL; 0.1 M PBS pH 7.4, with or without 5 mM [Fe(CN)6]3-/4-; PSA 0-11.06 ng/mL; temperature not stated; details: protein: commercial
T1 sequence (P07288 25-261): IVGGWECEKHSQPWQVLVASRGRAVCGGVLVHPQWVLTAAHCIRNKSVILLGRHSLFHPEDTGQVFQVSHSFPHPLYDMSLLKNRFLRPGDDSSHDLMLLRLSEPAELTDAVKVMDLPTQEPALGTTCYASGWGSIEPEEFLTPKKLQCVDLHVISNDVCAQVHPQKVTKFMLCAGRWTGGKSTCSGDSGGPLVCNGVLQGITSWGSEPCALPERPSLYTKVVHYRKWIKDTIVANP

[2] = target: T1, Prostate specific antigen (PSA); test: electrochemical impedance spectroscopy (immobilized DNA); Rct unchanged with PSA; 0.1 M PBS pH 7.4, with or without 5 mM [Fe(CN)6]3-/4-; PSA 0-11.06 ng/mL; temperature not stated; details: protein: commercial

ATTAAAGCTCGCCATCAAATAGC (ssDNA) [PSA-Aptamer]
binding result [1]: binds

TTTTGCCATCGGGGCCATGTTCAA (ssDNA) [random single strand DNA]
binding result [2]: no binding
